In patent US9073997B2, “Growth factor antagonists for organ transplant alloimmunity and arteriosclerosis” (VEGENICS PTY LIMITED, priority 2007, dated 2015):

Columns and labels:
VEGF-C 109 = molecular target: T1, VEGF-C 109 (Homo sapiens, UniProt P49767); test: Receptor fragment/Fc fusion ligand precipitation binding assay, VEGF-C 109; details: tritiated VEGF-C 109 precipitated, analysis of PAGE gels
T1 construct: fragments with 109 residues each (called VEGF-A 109 and VEGF-C 109); His6 (C); made in house; host or cells: 293T cells (labelled supernatant)
T1 sequence (P49767 with tags, fused parts or gaps): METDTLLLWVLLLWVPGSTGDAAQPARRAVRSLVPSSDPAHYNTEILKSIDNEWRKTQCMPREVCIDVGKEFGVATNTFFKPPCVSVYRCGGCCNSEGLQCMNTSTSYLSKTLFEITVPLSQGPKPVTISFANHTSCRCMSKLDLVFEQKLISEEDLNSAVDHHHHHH
From the text: (§1) The binding assays utilized minimal VEGF-A (SEQ ID NOS: 106 and 107) and VEGF-C (SEQ ID NOS: 108 and 109) fragments with 109 residues each (called VEGF-A 109 and VEGF-C 109). These constructs are not naturally occurring, but are effective for binding assays. Other growth factor constructs, either natural or artificial, may also be used for performing these assays.
(§2) Either Tritiated VEGF-A 109 or VEGF-C 109 was used in a given binding experiment. Ligand in solution was precipitated by mixing […] of ligand solution with 100 μl binding mix at 4° C. overnight, with agitation. The ligand solution may be the supernatant of metabolically labeled 293T cells. The binding mixes used for the receptor binding analysis were as follows: for VEGFR-1 binding assays, the binding mix was phosphate buffered saline (PBS) containing 1.5% BSA, 0.06% Tween 20, 3 μg/ml heparin and 400 ng/ml VEGFR-1-Fc fusion protein (100 μl of this binding mix was added to 200 μl of ligand solution). For VEGFR-2 binding assays, the binding mix was 82% conditioned cell supernatant from 293T cells transiently expressing VEGFR-2-Fc fusion protein in mixture with 18% of a PBS solution that contained 5% BSA, 0.2% Tween 20, and 10 μg/ml heparin (250 μl of binding mix was added to 200 μl of ligand solution). For VEGFR-3 binding assays, the binding mix was 82% conditioned cell supernatant from 293T cells transiently expressing VEGFR-3-Fc fusion protein, 18% of PBS containing 5% BSA, 0.2% Tween 20, and 10 μg/ml heparin (250 μl of binding mix was added to 200 μl of ligand solution). To collect precipitated ligand, 50 μl of a 30% protein A sepharose (PAS, Pharmacia) slurry in PBS was added and incubated under agitation for at least 1.5 hr at 4° C. Standard buffer was added to each immunoprecipitation sample and boiled for 5 minutes at 95° C. during which the immunopreciptated proteins become dissociated from the protein A sepharose. After centrifugation, 10 μl of each sample was analyzed on 15% SDS-PAGE under reducing conditions. The gels were dried and exposed for either 12 hours on phosphorimager plates or 4 weeks on X-ray film.
(§3) Tables 3 and 4 identify constructs by name, a DNA and deduced amino acid sequence from the sequence listing, the portion of VEGFR-2 (SEQ ID NO: 4) or VEGFR-3 (SEQ ID NO: 6) amino acid sequence that was included in the constructs, whether the constructs expressed, and, if tested, whether constructs bound ligand. The table data is compiled from analysis of PAGE gels. The asterisk adjacent to the “B*” indicates a “spill-over” from the adjacent lane, as the origin of the bands seen in the “B” lane. A failure to express under the particular experimental conditions used in this instance should not be interpreted as a failure to bind. The experiments can be repeated using different receptor fragments, binding constructs, ligands, or combinations thereof.

[1] = system: mature VEGF-C, full-length VEGF-C; test: Ligand binding analysis of chimeric VEGF receptor/hIgG1Fc fusions, VEGF-C; design: species or system human; details: 35S-labeled mature and full-length VEGF-C precipitated with conditioned medium of 293T cells, SDS-PAGE
Sequence of mature VEGF-C, full-length VEGF-C (P49767 112-227 limits assumed): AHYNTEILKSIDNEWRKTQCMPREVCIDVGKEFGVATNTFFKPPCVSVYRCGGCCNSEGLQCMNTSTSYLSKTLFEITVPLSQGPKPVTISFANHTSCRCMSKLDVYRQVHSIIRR
Description: (§4) For expression analysis, the two new chimeric VEGF receptors and control constructs expressing R-1D1-3/hIgG1Fc, R-2D1-3/hIgG1Fc, R-3D1-3/hIgG1Fc, mature VEGF-C and VEGF-A165 were transiently transfected into 293T cells using JetPEI (QBioGene/MP Biomedicals, Irvine, Calif.). Metabolic labeling with ^35S-methionine and ^35S-cysteine was carried out at 48 hours post-transfection and labeling maintained for 24 hours. The serum-free conditioned medium was then immunoprecipitated using Protein A sepharose and either: a) specific antiserum against human mature VEGF-C; b) goat polyclonal antibody against human VEGF-A (R&D systems, Minneapolis, Minn.); or, c) serum-free medium of 293T cells taken 48 to 72 hours post-transient transfection with VEGF receptor/hIgG1Fc proteins (control proteins, R-1D1-3, R-2D1-3, R-3D1-3; chimeric proteins, R-3D1-R2D2+3 and R-3D1-R2D2-R1D3).
(§5) The immunoprecipitated fractions were analyzed on 17% SDS-PAGE and the dried gels were exposed for 12 hours on phosphoimager plates or 36 hours on X-ray films.
(§6) Ligand binding analysis was performed as described for the VEGF-C/VEGF-A hybrid growth factors in Example 1. Briefly, the unlabeled conditioned medium of transiently transfected 293T cells expressing the chimeric VEGFR/IgG1Fc fusion proteins was used to precipitate the ^35S metabolically labeled mature VEGF-C, full-length VEGF-C, and VEGF-A165.

VEGF-A165 = molecular target: T2, VEGF-A165 (Homo sapiens, UniProt P15692); test: Ligand binding analysis of chimeric VEGF receptor/hIgG1Fc fusions, VEGF-A165; details: for binding to VEGF-A: 35S-labeled VEGF-A165 precipitated with conditioned medium of 293T cells, SDS-PAGE
T2 construct: made in house; host or cells: 293T cells, transient transfection, 35S-labelled conditioned medium
T2 sequence (P15692 27-191 isoform P15692-4): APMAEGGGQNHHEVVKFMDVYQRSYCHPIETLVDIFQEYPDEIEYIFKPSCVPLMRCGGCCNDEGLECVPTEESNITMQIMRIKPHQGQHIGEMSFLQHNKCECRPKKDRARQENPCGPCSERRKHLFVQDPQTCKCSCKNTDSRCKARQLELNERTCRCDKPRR
Description: as §4, §5, §6

VEGF-A 109 = molecular target: T3, VEGF-A 109 (Homo sapiens, UniProt P15692); test: Receptor fragment/Fc fusion ligand precipitation binding assay, VEGF-A 109; details: VEGFR-2 Fc fusion constructs; tritiated VEGF-A 109 precipitated, analysis of PAGE gels
T3 construct: fragments with 109 residues each (called VEGF-A 109 and VEGF-C 109); His6 (C); made in house; host or cells: 293T cells (labelled supernatant)
T3 sequence (P15692 with tags, fused parts or gaps): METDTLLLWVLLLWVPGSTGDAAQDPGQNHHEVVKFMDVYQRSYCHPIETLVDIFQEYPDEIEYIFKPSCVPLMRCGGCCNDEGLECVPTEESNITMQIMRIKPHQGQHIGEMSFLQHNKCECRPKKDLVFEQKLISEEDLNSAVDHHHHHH
From the text: as §1, §2, §3

Substance	Binds VEGF-C (VEGF-C 109; VEGFR-3 Fc fusion constructs)	Binds VEGF-C (VEGF-C 109; VEGFR-2 Fc fusion constructs)	Binds VEGF-A (VEGF-A 109)	other results
R-3 G: Fc fusion of VEGFR-3 residues 1-329 (D1-3); SEQ ID NOS: 43 and 44	Yes			
R-3 H: Fc fusion of VEGFR-3 residues 1-134; SEQ ID NOS: 45 and 46	No			
R-3D1-R2D2+3/Ig: chimeric hIgG1Fc fusion: first Ig-like domain of VEGFR-3 and second and third Ig-like domains of VEGFR-2; SEQ ID NO: 125				binding to VEGF-C [1]: exhibited binding; binding to VEGF-A (VEGF-A165): not VEGF-A; binding to VEGF-A, second experiment (VEGF-A165; second experiment, 35S-labeled VEGF-A165, SDS-PAGE): only weak binding
R-2 J: Fc fusion of VEGFR-2 residues 118-232 with CD33 signal peptide; SEQ ID NOS: 25 and 26		Very	No	
R-3 C: Fc fusion of VEGFR-3 residues 1-229; SEQ ID NOS: 35 and 36	Yes			
R-2 K: Fc fusion of VEGFR-2 residues 118-241 with CD33 signal peptide; SEQ ID NOS: 27 and 28		No	No	
R-2 H: Fc fusion of VEGFR-2 residues 118-220 with CD33 signal peptide; SEQ ID NOS: 21 and 22		Yes	No	Binds VEGF-C (VEGF-C 109; VEGFR-2 Fc fusion constructs, listed as R-2H): sufficient for VEGF-C binding
R-3 B: Fc fusion of VEGFR-3 residues 138-226 with CD33 signal peptide; SEQ ID NOS: 33 and 34	Yes			
R-2 F: Fc fusion of VEGFR-2 residues 24-122 with CD33 signal peptide; SEQ ID NOS: 17 and 18		No	No	
R-3 D: Fc fusion of VEGFR-3 residues 1-226; SEQ ID NOS: 37 and 38	Yes			
R-2 B: Fc fusion of VEGFR-2 residues 24-220 with CD33 signal peptide; SEQ ID NOS: 9 and 10		No	No	
R-3 J: Fc fusion of VEGFR-3 residues 1-39, 132-247; SEQ ID NOS: 49 and 50	No			
R-2 L: Fc fusion of VEGFR-2 residues 220-326 with CD33 signal peptide; SEQ ID NOS: 29 and 30		No	No	
R-2 G: Fc fusion of VEGFR-2 residues 118-326 with CD33 signal peptide; SEQ ID NOS: 19 and 20		Yes	Yes	
R-2 E: Fc fusion of VEGFR-2 residues 24-241 with CD33 signal peptide; SEQ ID NOS: 15 and 16		No	No	
R-2 C: Fc fusion of VEGFR-2 residues 24-226 with CD33 signal peptide; SEQ ID NOS: 11 and 12		No	No	
R-2 D: Fc fusion of VEGFR-2 residues 24-232 with CD33 signal peptide; SEQ ID NOS: 13 and 14		No	No	
R-3 K: Fc fusion of VEGFR-3 residues 1-39, 132-229; SEQ ID NOS: 51 and 52	No			
R-2 A: Fc fusion of VEGFR-2 (SEQ ID NO: 4) residues 24-326 with CD33 signal peptide; SEQ ID NOS: 7 and 8		Yes	Yes	
R-3D1-R2D2-R1D3/Ig: chimeric hIgG1Fc fusion: first Ig-like domain of VEGFR-3, second of VEGFR-2, third of VEGFR-1; SEQ ID NO: 128				binding to VEGF-C [1]: strongly bound; binding to VEGF-A (VEGF-A165): strongly bound
R-3 I: Fc fusion of VEGFR-3 residues 1-39, 132-329; SEQ ID NOS: 47 and 48	No			
R-2 I: Fc fusion of VEGFR-2 residues 118-226 with CD33 signal peptide; SEQ ID NOS: 23 and 24		Weak	No	
